Measured values published in patent US20250152722A1, “DRUG CONJUGATE OF GLUCOCORTICOID” (SHANGHAI SHENGDI PHARMACEUTICAL CO., LTD., priority 2022, published 2025).

B1: antibody-drug conjugate ADC-2 (other)
heavy: EVQLVESGGGLVQPGGSLRLSCAASGFTFSDYGMHWVRQAPGKGLEWVAFISSGSSIIYYADIVKGRSTISRDNAKNTLYLQMNSLRAEDTAVYYCTRGNKRGFFDYWGQGTLVTVSSASTKGPSVFPLAPCSRSTSESTAALGCLVKDYFPEPVTVSWNSGALTSGVHTFPAVLQSSGLYSLSSVVTVPSSSLGTKTYTCNVDHKPSNTKVDKRV
light: EIVLTQSPATLSLSPGERATLSCRASSSVPYMYWYQQKPGQAPRLLIYLTSNLASGIPARFSGSGSGTDFTLTISSLEPEDFAVYYCQQWRAYPPMLTFGGGTKVEIKRTVAAPSVFIFPPSDEQLKSGTASVVCLLNNFYPREAKVQWKVDNALQSGNSQESVTEQDSKDSTYSLSSTLTLSKADYEKHKVYACEVTHQGLSSPVTKSFNRGEC
modifications: budesonide linker-drug (Compound 2) coupled after TCEP reduction of 25G7-Fab; positions and drug loading not given; budesonide linker-drug (Compound 2, maleimide-(PEG)4-CH2CH2C(O)-Gly-Gly-Phe-Gly-NHCH2-O-budesonide) coupled after TCEP reduction of 25G7-Fab; positions and drug loading not given
B2: 25G7-Fab (Fab, V domains shown)
VH: EVQLVESGGGLVQPGGSLRLSCAASGFTFSDYGMHWVRQAPGKGLEWVAFISSGSSIIYYADIVKGRSTISRDNAKNTLYLQMNSLRAEDTAVYYCTRGNKRGFFDYWGQGTLVTVSS
VL: EIVLTQSPATLSLSPGERATLSCRASSSVPYMYWYQQKPGQAPRLLIYLTSNLASGIPARFSGSGSGTDFTLTISSLEPEDFAVYYCQQWRAYPPMLTFGGGTKVEIKR
notes: Heavy chain is VH-CH1 (hu25G7-24-IgG4 VH-CH1), light chain is hu25G7-A LC; also called naked antibody 25G7-Fab; antibody 25G7-Fab
B3: hu25G7 (antibody, human IgG4 S228P, kappa, V domains shown)
VH: B2 VH
VL: B2 VL
notes: Full-length humanized antibody

Experiments:
[1] = Pharmacokinetic testing on mouse model after intratracheal nebulization; assay type: in vivo; details: after ADC-2 100 μg i.t., mice
Method: C57BL6/J mice, 8 weeks old, male, Cyagen (Suzhou) Biosciences Co., Ltd.
Mice were given medication via intratracheal nebulization (i.t.). At different time points post-administration, 300-400 μL of blood was collected from a mandibular blood vessel, left to stand for 2 h, and then centrifuged at 7500 rpm and 4° C. for 10 min, and the serum was collected. Following the blood collection, the mice were anesthetized and immobilized, the neck muscles of the mice were bluntly isolated to expose the trachea, and an incision was horizontally made in the trachea. A lavage syringe needle was slowly inserted, the normal saline pre-loaded, pre-cooled at 4° C., was slowly injected into the lung tissue for lavage, and the bronchoalveolar lavage fluid (BALF) was collected. Lavage was performed 3 times, with 300 μL of normal saline used for each of the first two lavages and 400 μL for the third. The collected bronchoalveolar lavage fluid was centrifuged at 1000 rpm and 4° C. for 10 min, and the supernatant was collected. After the mice were euthanized, their thoracic cavities were opened, and the complete lung tissues were isolated and collected. The tissues were rinsed with PBS to remove blood stains on the surfaces, and the surface PBS was dried off with paper towels before weighing the lung tissues. […] The protein concentrations in the homogenates were measured (Pierce, 23227). […]

human IL-4Rα protein = target: T1, human IL-4Rα protein (Homo sapiens, UniProt P24394); assay: SPR affinity for human IL-4Rα antigen protein (Biacore 8K); assay type: binding; details: captured hIL-4Rα
T1 construct: purchased SinoBiological 10402-H08H-B
T1 sequence (P24394 26-232 limits assumed): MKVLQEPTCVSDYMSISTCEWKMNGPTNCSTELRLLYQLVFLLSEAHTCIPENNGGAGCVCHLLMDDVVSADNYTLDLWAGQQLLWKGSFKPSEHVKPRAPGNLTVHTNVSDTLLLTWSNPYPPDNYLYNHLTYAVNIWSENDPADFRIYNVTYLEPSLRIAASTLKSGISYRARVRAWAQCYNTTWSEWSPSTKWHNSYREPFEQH
Method: An SA sensor chip (Cytiva) was placed in Biacore 8K (Cytiva), and Biotin-labeled human IL-4Rα protein (SinoBiological, CAT #10402-H08H-B) was captured on the SA sensor chip. HBS-EP+buffer solution (10 mM HEPES, 150 mM NaCl, 3 mM EDTA, 0.05% surfactant P20) was used as the mobile phase. Each test protein was serially diluted 2-fold with HBS-EP+buffer solution and then injected as an analyte. […] Analysis was performed using Biacore 8K evaluation software (Cytiva), and data on the affinities of the test proteins were obtained.

[2] = target: T2, human IL-4Rα expressed on cells (human, UniProt P24394 26-825); assay: flow cytometry, whole-cell binding to Karpas 299 cells expressing IL-4Rα; FITC anti-human IgG (Fab-specific) secondary antibody
T2 construct: whole, on cells; also called IL-4Rα on TF-1 cells; cells expressing human IL-4Rα
T2 sequence (looked up): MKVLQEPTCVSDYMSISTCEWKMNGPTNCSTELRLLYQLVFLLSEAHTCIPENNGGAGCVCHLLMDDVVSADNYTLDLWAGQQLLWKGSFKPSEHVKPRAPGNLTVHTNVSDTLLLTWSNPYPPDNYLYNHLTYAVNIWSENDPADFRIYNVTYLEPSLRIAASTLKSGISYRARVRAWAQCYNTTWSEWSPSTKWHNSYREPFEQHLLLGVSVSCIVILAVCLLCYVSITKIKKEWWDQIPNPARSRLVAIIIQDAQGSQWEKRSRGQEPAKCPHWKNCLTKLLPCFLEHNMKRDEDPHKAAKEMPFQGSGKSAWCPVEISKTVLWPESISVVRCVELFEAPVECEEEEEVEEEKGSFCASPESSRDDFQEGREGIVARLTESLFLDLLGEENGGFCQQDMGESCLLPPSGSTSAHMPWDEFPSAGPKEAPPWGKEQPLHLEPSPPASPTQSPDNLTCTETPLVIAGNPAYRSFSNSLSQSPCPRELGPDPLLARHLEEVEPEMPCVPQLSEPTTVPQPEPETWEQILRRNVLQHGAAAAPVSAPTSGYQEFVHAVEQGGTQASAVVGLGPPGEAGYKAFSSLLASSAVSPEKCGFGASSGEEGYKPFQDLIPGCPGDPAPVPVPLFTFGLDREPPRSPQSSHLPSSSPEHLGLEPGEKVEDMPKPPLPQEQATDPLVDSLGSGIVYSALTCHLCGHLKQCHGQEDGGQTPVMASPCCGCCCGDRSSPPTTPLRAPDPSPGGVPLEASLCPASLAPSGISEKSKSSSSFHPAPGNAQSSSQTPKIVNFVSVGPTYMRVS
Method: (§1) TF-1 and Karpas299 cells in the logarithmic growth phase were harvested and counted, and the cell density was adjusted. The cells were inoculated onto a 96-well round-bottom plate at 1×10⁵ cells/well. […] After the antibodies were washed off with FACS buffer (PBS containing 2% FBS), a fluorescently labeled secondary antibody was added for staining. […] The cells were incubated with the secondary antibodies at 4° C. for 30 min, then washed with FACS buffer twice, and assayed on a flow cytometer (BD, FACS Celesta), and the results were analyzed using FlowJo (FlowJo, LLC) software.

[3] = target: T2, human IL-4Rα expressed on cells; assay: cell-based or functional assay
[4] = target: T2, human IL-4Rα expressed on cells; assay: flow cytometry on TF-1 cells, anti-hFab-FITC secondary antibody
Method: as §1

[5] = target: T3, Biotin-labeled human IL-4Rα protein (SinoBiological, CAT #10402-H08H-B) (human, UniProt P24394 26-232, Biotin-labeled (sites not given)); assay: SPR, Biacore 8K, biotinylated hIL-4Rα captured on SA chip, test protein as analyte
T3 construct: Bought reagent, captured on an SA sensor chip; also called hIL-4Rα; human IL-4Rα antigen protein
T3 sequence (looked up): T1 sequence (P24394 26-232 limits assumed)
Method: HBS-EP+buffer solution (10 mM HEPES, 150 mM NaCl, 3 mM EDTA, 0.05% surfactant P20) was used as the mobile phase. Each test protein was serially diluted 2-fold with HBS-EP+buffer solution and then injected as an analyte. The flow rate was set to 30 μL/min. […] Analysis was performed using Biacore 8K evaluation software (Cytiva), and data on the affinities of the test proteins were obtained.

| Molecule | EC50 (read off the curve) [2] [nM] | IC50 value (nM) for blocking of IL-4 signaling pathway (HEK-Blue IL-4/IL-13 STAT6-SEAP reporter cells, recombinant human IL-4) [3] [nM] | IC50 value (nM) for blocking of IL-13 signaling pathway (HEK-Blue IL-4/IL-13 STAT6-SEAP reporter cells, recombinant human IL-13) [3] [nM] | EC50 [4] [nM] | further results |
| --- | --- | --- | --- | --- | --- |
| CCCC1O[C@@H]2C[C@H]3[C@@H]4CCC5=CC(=O)C=C[C@]5(C)[C@H]4[C@@H](O)C[C@]3(C)[C@]2(C(=O)CO)O1 (stereo partly drawn) [Free budesonide, budesonide] |  |  |  |  | exposure of budesonide in serum, BALF and lung tissue (in words) [1]: low in all these tissues |
| AZD1402-TAG: protein sequence from SEQ ID NO: 1 in WO2020200960A1 with a His tag fused at the C-terminus (SEQ ID NO: 52) |  |  |  |  | Koff (human IL-4Rα protein): 0.000102 s⁻¹; Kon (human IL-4Rα protein): 4.77e+06 M⁻¹ s⁻¹ |
| B1 | ~0.3 | 0.68 | 10.6 |  |  |
| B2 | ~0.2 | 0.61 | 14.6 | 0.243 | Kd [5]: 0.0439 nM; koff [5]: 0.000206 s⁻¹; kon [5]: 4.69e+06 M⁻¹ s⁻¹ |
| B3 | ~0.1 |  |  | 0.247 |  |
